# Test results: publication PMC6901573 (Scientific Reports, 2019)
# What was measured:
# [1] = molecular target: T1, IsdB (NEAT1 and NEAT2 domains connected by the helical linker), wild type (S. aureus, UniProt Q8NX66 125-485); assay: SPR; settings: both partners purified
# [2] = molecular target: T1, IsdB (NEAT1 and NEAT2 domains connected …); assay: SPR; settings: both partners purified; remark: listed apart in the source
# T1 sequence (Q8NX66 125-485): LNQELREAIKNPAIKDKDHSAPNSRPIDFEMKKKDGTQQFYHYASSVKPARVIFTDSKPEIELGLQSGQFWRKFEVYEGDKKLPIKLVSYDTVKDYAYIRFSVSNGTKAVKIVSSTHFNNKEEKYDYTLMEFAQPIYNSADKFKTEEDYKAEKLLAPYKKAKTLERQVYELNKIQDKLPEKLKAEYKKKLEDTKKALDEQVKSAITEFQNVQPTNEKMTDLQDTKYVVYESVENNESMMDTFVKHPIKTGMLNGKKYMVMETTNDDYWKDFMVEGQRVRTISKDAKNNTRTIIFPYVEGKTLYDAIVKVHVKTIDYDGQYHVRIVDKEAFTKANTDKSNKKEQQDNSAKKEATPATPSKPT
Binder,"KD of the first, reversible step of the two-state irreversible model [1] [nM]","KD of the first, reversible step of the two-state irreversible model [2] [nM]"
"Human hemoglobin A, oxidized form (methemoglobin, MetHb) (complex) chain 1: not shown chain 2: not shown",70 ± 6,69 ± 1
"Human alpha-semihemoglobin, oxidized (met) form (complex) chain 1: not shown chain 2: not shown",108 ± 11,–
"Human beta-semihemoglobin, oxidized (met) form (complex) chain 1: not shown chain 2: not shown",91 ± 5,–
